Reference: US20260008815A1, “CYCLIC PEPTIDE OR SALT THEREOF, AND USES THEREOF” (FUJIFILM Corporation, priority 2023, published 2026)
Numbered stars: 1 amine (or outer) side, 2 acyl side, 3 side chain; on linkers, the order of the positions; unused ones are H or OH. Bridge positions count the residues as written; N and C are the ends. Ends that are not written are not given here. acetyl = acetyl (haloacetyl before ring closure) on the side-chain amine, O=C(C[*:1])[*:2]; COCH2 = acetyl group that carries the bridge

biological target: T1, Recombinant Human FGFR2 alpha (IIIc) Fc Chimera Protein (Homo sapiens, UniProt P21802); assay: ELISA binding affinity of enzymatically synthesized peptide to FGFR; conditions: ELISA luminescence signal at 10 nmol/L peptide, SEQ ID NO: 47 at 10 nmol/L standardized to 1; enzyme synthesis product
T1 construct: Fc (chimera); purchased R&D systems 712-FR-050
Procedure: The binding affinity of the peptide to FGFR was evaluated using an ELISA method.
The binding affinity of the enzymatically synthesized peptide to FGFR was measured by evaluating the amount of the peptide bound to FGFR by ELISA.
First, 5 ng of Recombinant Human FGFR2 alpha (IIIc) Fc Chimera Protein (R&D systems, 712-FR-050) was immobilized in each well of a 96-well plate, and blocked with Pierce Protein-Free (PBS) Blocking Buffer (Thermo, 37572), and a peptide diluted with Can Get Signal Immunoreaction Enhancer Solution I (TOYOBO, NKB-101) was then added and reacted at room temperature for 3 hours. After washing with 0.05% Tween 20-containing phosphate buffered saline (PBS), an anti-Myc antibody (Cell Signaling, 14038S) diluted with Can Get Signal Immunoreaction Enhancer Solution II (TOYOBO, NKB-101) was added and reacted at room temperature for 2 hours. After washing with 0.05% Tween 20-containing PBS, SuperSignal ELISA Femto Substrate (Thermo, 37075) was added, and the luminescence amount was measured. The dose-response relationship was calculated from using the difference between the luminescence amount in the well in which FGFR was immobilized and the luminescence amount in the well in which FGFR was not immobilized, and the concentration of the peptide at the time of reaction, and the binding affinity to FGFR was evaluated according to the following evaluation criteria. The evaluation result preferably satisfies the evaluation criteria A, B, or C.
In a case where a value of a luminescence signal emitted by the cyclic peptide set forth in SEQ ID NO: 47 at a reaction concentration of 10 nmol/L is standardized to 1, evaluation criteria of the luminescence signal value emitted by the cyclic peptide at a reaction concentration of 10 nmol/L is as follows. • A: 0.7 or more • B: 0.5 or more and less than 0.7 • C: 0.1 or more and less than 0.5 • D: less than 0.1.

T1 sequence (P21802 with tags, fused parts or gaps limits assumed): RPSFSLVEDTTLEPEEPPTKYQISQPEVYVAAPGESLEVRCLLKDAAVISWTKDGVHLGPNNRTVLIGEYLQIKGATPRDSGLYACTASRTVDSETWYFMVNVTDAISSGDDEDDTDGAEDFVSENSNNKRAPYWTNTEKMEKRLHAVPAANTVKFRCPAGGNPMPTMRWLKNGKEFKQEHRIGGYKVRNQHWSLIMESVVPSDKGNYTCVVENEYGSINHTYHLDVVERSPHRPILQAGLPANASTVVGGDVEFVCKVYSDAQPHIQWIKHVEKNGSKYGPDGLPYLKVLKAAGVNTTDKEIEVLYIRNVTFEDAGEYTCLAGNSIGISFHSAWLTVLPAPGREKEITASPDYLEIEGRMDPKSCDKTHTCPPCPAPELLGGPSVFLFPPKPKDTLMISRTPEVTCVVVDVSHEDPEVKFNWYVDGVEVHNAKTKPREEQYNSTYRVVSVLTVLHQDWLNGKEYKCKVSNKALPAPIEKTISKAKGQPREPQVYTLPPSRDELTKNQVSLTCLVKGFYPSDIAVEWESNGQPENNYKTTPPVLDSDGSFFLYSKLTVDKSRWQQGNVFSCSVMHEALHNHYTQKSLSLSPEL

Evaluation result of binding affinity to FGFR | Substance
C (0.1 or more and less than 0.5) | 112 (HCQPEYELYYIYLYLNALK(COCH2)I; thioether 2-19 (inferred)) [compound 112]
B (0.5 or more and less than 0.7) | 181 (YCEEGYLDPEQYQYFIYFK(COCH2)Y; thioether 2-19 (inferred)) [compound 181]
A (0.7 or more) | 330 (YCEENYLDPAQYQYFIYFK(COCH2)Y; thioether 2-19 (inferred)) [compound 330]
A (0.7 or more) | 195 (YCEENYIDPEQYQYFIYFK(COCH2)Y; thioether 2-19 (inferred)) [compound 195]
C (0.1 or more and less than 0.5) | 427 (ECDTADYPQEWIQDVYQYLYK(COCH2)R; thioether 2-21 via acetyl) [compound 427]
A (0.7 or more) | 237 (YCEENYLDPPQYQYFIYFK(COCH2)Y; thioether 2-19 (inferred)) [compound 237]
B (0.5 or more and less than 0.7) | 70 (KCAPQNFINPVQWRYFQHYK(COCH2)N; thioether 2-20 (inferred)) [compound 70]
A (0.7 or more) | 215 (YCEENYLQPEQYQYFIYFK(COCH2)Y; thioether 2-19 (inferred)) [compound 215]
A (0.7 or more) | 224 (YCEENYLDVEQYQYFIYFK(COCH2)Y; thioether 2-19 (inferred)) [compound 224]
A (0.7 or more) | 49 (SCQGNWISNTQFRYFIAYK(COCH2)T; thioether 2-19; not fully specified (residue 1); printed as s-(C)-QGNWISNTQFRYFIAY-(K(acetyl))-T) [compound 49]
B (0.5 or more and less than 0.7) | 58 (KCPQNFANPVQWRYFQHYK(COCH2)N; thioether 2-19 (inferred)) [compound 58]
A (0.7 or more) | 283 (YCEENYLDPEQYQYFNYFK(COCH2)Y; thioether 2-19) [compound 283]
A (0.7 or more) | 54 (KCAQNFINPVQWRYFQHYKN; Description of Artificial Sequence: Cyclic peptide) [compound 54]
A (0.7 or more) | 53 (ACPQNFINPVQWRYFQHYKN; not fully specified; Description of Artificial Sequence: Cyclic peptide) [compound 53]
A (0.7 or more) | 289 (YCEENYLDPEQYQYFRYFK(COCH2)Y; thioether 2-19) [compound 289]
C (0.1 or more and less than 0.5) | 415 (YCDWVEVANARQLAYYTLYRKK; Description of Artificial Sequence: Cyclic peptide) [compound 415]
A (0.7 or more) | 288 (YCEENYLDPEQYQYFEYFK(COCH2)Y; thioether 2-19) [compound 288]
C (0.1 or more and less than 0.5) | 382 (PCDRQLYYLYQYIHK(COCH2)T; thioether 2-15 (inferred)) [compound 382]
A (0.7 or more) | 257 (YCEENYLDPEQYGYFIYFK(COCH2)Y; thioether 2-19 (inferred)) [compound 257]
A (0.7 or more) | 139 (ICEENYLDPEQYQYFIYFK(COCH2)Y; thioether 2-19 (inferred)) [compound 139]
C (0.1 or more and less than 0.5) | 401 (QCQFLNYVNHVQWHYFWVFK(COCH2)S; thioether 2-20 (inferred)) [compound 401]
A (0.7 or more) | 293 (YCEENYLDPEQYQYFILFK(COCH2)Y; thioether 2-19) [compound 293]

Evaluation result of binding affinity to FGFR | Substance
A (0.7 or more) | 163 (YCDENYLDPEQYQYFIYFK(COCH2)Y; thioether 2-19 (inferred)) [compound 163]
A (0.7 or more) | 196 (YCEENYVDPEQYQYFIYFK(COCH2)Y; thioether 2-19 (inferred)) [compound 196]
A (0.7 or more) | 341 (YCEENYLDKEQYQYFIYFK(COCH2)Y; thioether 2-19) [compound 341]
A (0.7 or more) | 55 (KCPANFINPVQWRYFQHYK(COCH2)N; thioether 2-19 (inferred)) [compound 55]
C (0.1 or more and less than 0.5) | 363 (LCYLYQYIYTAK(COCH2)F; thioether 2-12) [compound 363]
A (0.7 or more) | 300 (YCEENYLDPEQYQYFISFK(COCH2)Y; thioether 2-19 (inferred)) [compound 300]
C (0.1 or more and less than 0.5) | 325 (YCEEAYLDPEQYQYFIYFK(COCH2)Y; thioether 2-19 (inferred)) [compound 325]
A (0.7 or more) | 214 (YCEENYLNPEQYQYFIYFK(COCH2)Y; thioether 2-19 (inferred)) [compound 214]
A (0.7 or more) | 354 (YCEENYLDPMQYQYFIYFK(COCH2)Y; thioether 2-19) [compound 354]
A (0.7 or more) | 320 (YCEENYLDPEQYQYFIYFK(COCH2)R; thioether 2-19 (inferred)) [compound 320]
A (0.7 or more) | 311 (YCEENYLDPEQYQYFIYFK(COCH2)V; thioether 2-19 (inferred)) [compound 311]
A (0.7 or more) | 66 (KCPQNFINPVQWRYFQAYK(COCH2)N; thioether 2-19 (inferred)) [compound 66]
A (0.7 or more) | 230 (YCEENYLDSEQYQYFIYFK(COCH2)Y; thioether 2-19 (inferred)) [compound 230]
A (0.7 or more) | 156 (YCFENYLDPEQYQYFIYFK(COCH2)Y; thioether 2-19 (inferred)) [compound 156]
A (0.7 or more) | 315 (YCEENYLDPEQYQYFIYFK(COCH2)Q; thioether 2-19 (inferred)) [compound 315]
C (0.1 or more and less than 0.5) | 393 (YCHENYLDPEQHQYFHYFK(COCH2)Y; thioether 2-19 (inferred)) [compound 393]
A (0.7 or more) | 309 (YCEENYLDPEQYQYFIYFK(COCH2)L; thioether 2-19 (inferred)) [compound 309]
C (0.1 or more and less than 0.5) | 219 (YCEENYLRPEQYQYFIYFK(COCH2)Y; thioether 2-19 (inferred)) [compound 219]
A (0.7 or more) | 409 (LCNNWENYFDWLQWSYYIAYK(COCH2)E; thioether 2-21 (inferred)) [compound 409]
A (0.7 or more) | 268 (YCEENYLDPEQYEYFIYFK(COCH2)Y; thioether 2-19) [compound 268]
C (0.1 or more and less than 0.5) | 366 (DCQQYYLYLYLWK(COCH2)I; thioether 2-13) [compound 366]
